From PMC5037330, “Large-Scale Movements of IF3 and tRNA during Bacterial Translation Initiation” (Cell, 2016) come the findings set out here.

The test concerns the target T1, IF3 Thermus thermophilus (Thermus thermophilus, UniProt Q5SKU2 1-171).
T1 construct: Translation initiation factor IF3 of Thermus thermophilus; residues 3 to 170 were modelled (N-terminal domain, helical linker, C-terminal domain); also called initiation factor 3; NTD; source: E. coli BL21(DE3), purified (same protocol as IF1: 65°C heat step, ion exchange, hydroxylapatite)
T1 sequence: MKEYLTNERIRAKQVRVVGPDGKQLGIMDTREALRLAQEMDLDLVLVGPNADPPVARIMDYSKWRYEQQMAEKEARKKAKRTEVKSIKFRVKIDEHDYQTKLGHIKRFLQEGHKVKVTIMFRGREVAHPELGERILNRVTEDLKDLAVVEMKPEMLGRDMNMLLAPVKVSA
As to the kind of experiment: cryo-EM structure; Sample 1 (without IF2): T. thermophilus 30S, IF1, IF3, mRNA and fMet-tRNA mixed 1:4:4:3:3, complex at 120 nM, 5 mM HEPES pH 7.5, 10 mM MgAc, 50 mM KCl, 10 mM NH4Cl, 6 mM 2-mercaptoethanol; put on grids without further purification; classes PIC-1A to PIC-4. The settings on record: both partners purified.

B1: IF1 Thermus thermophilus (natural protein)
chain: MAKEKDTIRTEGVVTEALPNATFRVKLDSGPEILAYISGKMRMHYIRILPGDRVVVEITPYDPTRGRIVYRK
notes: Translation initiation factor IF1 of Thermus thermophilus, expressed as in Carter et al., 2001; also called initiation factor 1; source: E. coli BL21(DE3), purified (65°C heat step, ion exchange, hydroxylapatite)
Take B1: the binding result is listed as “binds”.
